# According to US20190144550A1 (Pfizer, published 2019):
# Legend:
# EGFR-mFc = biological target: T1, EGFR-mFc (human; mouse, UniProt P00533 25-645); assay: flow cytometry, CAR T cells stained with mFc fusion protein, Day 4
# T1 construct: extracellular domain; Produced in HEK293 cells; also called recombinant EGFR-mFc; not shown: mouse IgG1-Fc domain
# Text: To determine target binding specificity of the CARs, recombinant proteins EGFRvII-mFc and EGFR-mFc, which comprise of the extracellular domain of either human EGFRvIII or human wild-type EGFR, respectively, fused with mouse IgG1-Fc domain, were produced in HEK293 cells. […]
# [1] = biological target: T2, 8-histidine tagged recombinant wild-type protein EGFRwt (UniProt P00533 25-645, limits assumed); assay: SPR, captured by anti-mouse Fc
# T2 construct: not shown: 8-histidine tag
# [2] = biological target: T3, Monomeric 8-histidine tagged human EGFRvIII extracellular domain (human, UniProt P00533 298-645); assay: SPR, captured by anti-mouse Fc, 37 C
# T3 construct: Analyte in all SPR assays; not shown: 8-histidine tag
# Text: To generate human antibodies against EGFRvIII, transgenic AlivaMab mice (Ablexis LLC, San Francisco, Calif.) were immunized with alternating schedule of paraformaldehyde-fixed rat glioblastoma cell line expressing EGFRvIII, F98-npEGFRvIII (American Type Culture Collection, Manassas, Va.) and peptides (SEQ ID NO: 227: […]) directed to the junction region in EGFRvIII. Hybridomas were generated using standard techniques. To determine the binding affinity and specificity of these hybridomas to EGFRvIII, antibodies in culture supernatants were captured by anti-mouse Fc using Biacore™ T200 biosensor equipped with anti-mouse Fc coupled CM4 sensor chips (Biacore™ AB, Uppsala, Sweden—now GE Healthcare). Monomeric 8-histidine tagged human EGFRvIII extracellular domain was then injected as the analyte at 10-fold dilution series starting with top concentration 1000 nM. Affinity of anti-EGFRvIII antibodies towards human EGFRvIII was measured at 37° C.
# [3] = biological target: T4, human EGFRvIII expressed on cells (human, UniProt P00533 298-1210); assay: flow cytometry, F98-npEGFRvIII cells
# T4 construct: the F98-npEGFRvIII line was obtained from ATCC and its construct is not described; also called F98-npEGFRvIII; F98-EGFRvIII
# [4] = biological target: T4, human EGFRvIII expressed on cells; assay: flow cytometry, F98-npEGFRvIII against F98, F98-EGFRwt and A431 cells
binder,measurement,setting,value
"20B9 EGFRvIII specific CAR (other, Chimeric antigen receptor on primary human T cells) QVTLKESGPVLVKPTETLTLTCTVSGFSLSNARMGVSWIRQPPGKALEWLGHIFSTDEKSYSTSLRGRITISKDTSRGLVVLTLTNMDPVDTATYYCARDSSNYEGYFDFWGPGFLVTVSSGGGGSGGGGSGGGGSGGGGSEIVMTQSPATLSVSPGERATLSCRVSQSIGANLAWYQQKFGQAPRLLIYGASTRATGIPVRFSGGGSGTEFTLTISSLQSEDFAIYSCQQYIYWPFTFGPGTTVDIKTTTPAPRPPTPAPTIASQPLSLRPEACRPAAGGAVHTRGLDFACDIYIWAPLAGTCGVLLLSLVITLYCKRGRKKLLYIFKQPFMRPVQTTQEEDGCSCRFPEEEEGGCELRVKFSRSADAPAYQQGQNQLYNELNLGRREEYDVLDKRRGRDPEMGGKPRRKNPQEGLYNELQKDKMAEAYSEIGMKGERRRGKGHDGLYQGLSTATKDTYDALHMQALPPR",binding result,EGFR-mFc,no binding
"14C11 EGFRvIII specific CAR (other, Chimeric antigen receptor on primary human T cells) QVTLKESGPVLVKPTETLTLTCTVSGFSLNNARMGVSWIRQPPGKALEWFAHIFSTDEKSFRTSLRSRLTLSKDTSKSQVVLTMTNMDPVDTATYYCARDSSNYEGYFDYWGQGILVTVSSGGGGSGGGGSGGGGSGGGGSEIVMTQSPATLSVSPGERATLSCRASQSVSNNLAWYQQKPGQAPRLLIYGASTRATGVPARFSGSDSGTEFSLTISSLQSEDFAVYFCQQYKDWPFTFGPGTKVEIKTTTPAPRPPTPAPTIASQPLSLRPEACRPAAGGAVHTRGLDFACDIYIWAPLAGTCGVLLLSLVITLYCKRGRKKLLYIFKQPFMRPVQTTQEEDGCSCRFPEEEEGGCELRVKFSRSADAPAYQQGQNQLYNELNLGRREEYDVLDKRRGRDPEMGGKPRRKNPQEGLYNELQKDKMAEAYSEIGMKGERRRGKGHDGLYQGLSTATKDTYDALHMQALPPR",binding result,EGFR-mFc,no binding
"42G9 EGFRvIII specific CAR (other, Chimeric antigen receptor on primary human T cells) QVTLKESGPVLLKPTETLTLTCTVSGFSLSNPRMGVSWIRQPPGKALEWFAHIFSTDEKSLKLSLRSRLTLSKDTSKSQVVLTMTNMAPVDSATYYCARDSSNYEGYFDFWGQGTLVTVSSGGGGSGGGGSGGGGSGGGGSEVVLTQSPATLSVSPGERATLSCRASQSVRSNLAWYQQKSGQAPRLLIYGSTIRATGVPARFSGSGSGTEFTLTISSLQSEDFAVYYCQQYSDWPFTFGPGTKVDIKTTTPAPRPPTPAPTIASQPLSLRPEACRPAAGGAVHTRGLDFACDIYIWAPLAGTCGVLLLSLVITLYCKRGRKKLLYIFKQPFMRPVQTTQEEDGCSCRFPEEEEGGCELRVKFSRSADAPAYQQGQNQLYNELNLGRREEYDVLDKRRGRDPEMGGKPRRKNPQEGLYNELQKDKMAEAYSEIGMKGERRRGKGHDGLYQGLSTATKDTYDALHMQALPPR",binding result,EGFR-mFc,no binding
"32A10 EGFRvIII specific CAR (other, Chimeric antigen receptor on primary human T cells) QVTLKESGPVLVKPTETLTLTCTVSGFSLSNARMGVSWIRQPPGKALEWLAHIFSTDEKSIRRSLRSRLTLSKDTSKSQVVLTMTNMDPVDTATYFCARDSSNYEGYFDYWGQGTLVTVSSGGGGSGGGGSGGGGSGGGGSEVVMTQSPATLSVSPGERVTLSCRASQSVSSNFAWYQQRPGQAPRLLLYGATTRATGLPGRFSGSGSGTENILTISSLQSEDFAIYFCQQYKDWPFTFGPGSKVDIKTTTPAPRPPTPAPTIASQPLSLRPEACRPAAGGAVHTRGLDFACDIYIWAPLAGTCGVLLLSLVITLYCKRGRKKLLYIFKQPFMRPVQTTQEEDGCSCRFPEEEEGGCELRVKFSRSADAPAYQQGQNQLYNELNLGRREEYDVLDKRRGRDPEMGGKPRRKNPQEGLYNELQKDKMAEAYSEIGMKGERRRGKGHDGLYQGLSTATKDTYDALHMQALPPR",binding result,EGFR-mFc,no binding
"20G5 (antibody, V domains shown, Hybridoma supernatant (AlivaMab mouse); captured/detected via mouse Fc) VH: EVQLVESGGDLVKPGGSLRLSCAASGFTFTNAWMSWVRQAPGKGLEWVGRIKSKIDGGTTDYAAPVKGRFIISRDDSKNTLSLQMNSLKTEDTAMYYCTTAPGGPFDYWGQGSLVTVSS VL: DIVLTQSPLSLPVTPGEPASISCRSSQSLLYSDRRNYLDWFLQKPGQSPHLLIYLGSYRASGVPDRFSGSGSGTDFTLKISRVEAEDVGVYYCMQALQIPITFGQGTRLEIK",binding result,[1],no binding (tested: 1000 nM)
same,Kd,[2],231 nM
same,koff,[2],0.0289 s⁻¹
same,kon,[2],125000 M⁻¹ s⁻¹
same,% positive,[3],98.5%
same,MFI,[3],4640
"26B9 (antibody, V domains shown, Hybridoma supernatant (AlivaMab mouse); captured/detected via mouse Fc) VH: EVQLVESWGVLVKPGGSLRLSCAASGFIFNNAWMSWVRQAPGKGLEWIGRIKSKSDGGTTDYAAPVKDRFTISRDDSKDTLYLQMNGLKTEDTAVYFCTTAPGGPFDYWGQGTLVTVSS VL: DIVLTQSPLSLPVTPGEPASISCRSSQSLLHRDGFNYLDWFLQKPGQSPQLLIYLASSRASGVPDRFSGSDSGTDFTLKISRVEAEDVGVYYCMQALQTPITFGQGTRLEIK",binding result,[1],no binding (tested: 1000 nM)
same,Kd,[2],244 nM
same,koff,[2],0.032 s⁻¹
same,kon,[2],131000 M⁻¹ s⁻¹
same,% positive,[3],98.6%
same,MFI,[3],5400
same,fold MFI on EGFRvIII expressing cell line over non-expressing cell lines,[4],≥ 10 fold
"30D8 (antibody, V domains shown, Hybridoma supernatant (AlivaMab mouse); captured/detected via mouse Fc) VH: EVQLVESGGGLVKPGGSLRLSCEASGFTFSDAWMSWVRQAPGKGLEWVGRIKSKTDGGTTDYVVPLNGRFIISRDDSRNTLYLQLNNLKTEDTAVYYCTTVPGSYGYWGQGTLVTVSS VL: DIVMTQSPLSLPVTPGEPASISCRSSQSLLHNKRNNYLDWFLQKPGQSPQLLIYLASNRASGVPDRFSGGGSGTDFTLKISRVEAEDVGVYYCMQAQQTPITFGQGTRLEIK",binding result,[1],no binding (tested: 1000 nM)
same,Kd,[2],172 nM
same,koff,[2],0.0277 s⁻¹
same,kon,[2],161000 M⁻¹ s⁻¹
same,% positive,[3],98.6%
same,MFI,[3],5160
same,fold MFI on EGFRvIII expressing cell line over non-expressing cell lines,[4],≥ 10 fold
"h62G7-L6/EQ EGFRvIII specific CAR (other, Chimeric antigen receptor on primary human T cells) DVVMTQSPLSLPVTLGQPASISCKSSQSLLYSNGKTYLNWFQQRPGQSPRRLIYQVSKLDSGVPDRFSGSGSGTDFTLKISRVEAEDVGVYYCGQDTHFPLTFGGGTKVEIKGGGGSGGGGSGGGGSGGGGSQVQLVQSGAEVKKPGASVKVSCKASGYTFTDYTLHWVRQAPGQGLEWMGGIWPITGGTTYNQKFKGRVTMTRDTSTSTVYMELSSLRSEDTAVYYCARGEAQGSWGQGTLVTVSSTTTPAPRPPTPAPTIASQPLSLRPEACRPAAGGAVHTRGLDFACDIYIWAPLAGTCGVLLLSLVITLYCKRGRKKLLYIFKQPFMRPVQTTQEEDGCSCRFPEEEEGGCELRVKFSRSADAPAYQQGQNQLYNELNLGRREEYDVLDKRRGRDPEMGGKPRRKNPQEGLYNELQKDKMAEAYSEIGMKGERRRGKGHDGLYQGLSTATKDTYDALHMQALPPR",binding result,EGFR-mFc,no binding
"20E12 (antibody, V domains shown, Hybridoma supernatant (AlivaMab mouse); captured/detected via mouse Fc) VH: EVNLVESGGGLVKPGGSLRLSCEASGFTFSYAWMSWVRQAPGKGLEWVGRIKSIADGGATDYAAPVRNRFTISRDDSRNTLYLEMHSLKTEDTAVYYCTTIPGNDAFDMWGQGTMVTVSS VL: DIVLTQSPLSLSVTPGEPASISCRSSQSLLYSNGKNYLDWFLHKPGQSPQLLIYLGSNRASGVPDRFSGSGSGIDFILKISRVEAEDVGVYYCMQAQQTPITFGQGTRLEIK",binding result,[1],no binding (tested: 1000 nM)
same,Kd,[2],353 nM
same,koff,[2],0.0141 s⁻¹
same,kon,[2],39900 M⁻¹ s⁻¹
same,% positive,[3],97.9%
same,MFI,[3],3980
same,fold MFI on EGFRvIII expressing cell line over non-expressing cell lines,[4],≥ 10 fold
"34E7 (antibody, V domains shown, Hybridoma supernatant (AlivaMab mouse); captured/detected via mouse Fc) VH: EVNLVESGGGLVKPGGSLRLSCEASGFTFSYAWMSWVRQAPGKGLEWVGRIKSINDGGATDYASPVRNRFTISRDDSRNMLYLEMHSLKTEDTAVYYCTTIPGNDAFDMWGQGTLVTVSS VL: DIVLTQSPLSLSVTPGEPASISCRSTQSLLYSNGKNYLDWFLHKPGQSPQLLIFLGSIRASGVPDRFSGSGSGIDFILKISRVEAEDVGVYYCMQAQQTPITFGQGTRLEIK",binding result,[1],no binding (tested: 1000 nM)
same,Kd,[2],340 nM
same,koff,[2],0.0128 s⁻¹
same,kon,[2],37700 M⁻¹ s⁻¹
same,% positive,[3],98.5%
same,MFI,[3],4130
same,fold MFI on EGFRvIII expressing cell line over non-expressing cell lines,[4],≥ 10 fold
"32G8 (antibody, V domains shown, Hybridoma supernatant (AlivaMab mouse); captured/detected via mouse Fc) VH: EVNLVESGGGLVKPGGSLRLSCEASGFTFSYAWMSWVRQAPGKGLEWVGRIKSITDGGVIDYAAPVRNRCTISRDDSRNTLYLEMHSLKTEDTAVYYCTTIPGNDDFDMWGQGRMVTVSS VL: DIVLTQSPLSLSVTPGEPASISCRSSQSLLYSNGKNYLDWFLHKPGQSPQLLIYLGSNRASGVPDRFSGSGSGIDFILKISRVEAEDVGVYYCMQAQQTPITFGQGTRLEIK",binding result,[1],no binding (tested: 1000 nM)
same,Kd,[2],1790 nM
same,koff,[2],0.0122 s⁻¹
same,kon,[2],6820 M⁻¹ s⁻¹
same,% positive,[3],98.6%
same,MFI,[3],3730
same,fold MFI on EGFRvIII expressing cell line over non-expressing cell lines,[4],≥ 10 fold
